B1: SWA: known LC8 binding partner, literature (protein, UniProt P40688 1-548, looked up)
Protein swallow: MSLQDESFPTDELFDQLNNLSSSGARNTWFAEHHKPAVFERDTAPFLEICYADPDFDADGDVANKSAKTCVSDPVGRDQEDEDDYDEDVDGDDHKLGCEKAPLGSGRSSKAVSYQDIHSAYTKRRFQHVTSKVGQYIAEIQAQDQKRRNVKFAGFQRVNSMPESLTPTLQQVYVHDGDFKVDKNCQTHSNSDSNYNSNSNNSSSSFDRLLAENESLQQKINSLRVEAKRLQGFNEYVQERLDRKTDDFVKMKCNFETLRTELSECQQKLRRQQDNSQHHFMYHIRSATSAKATQTDFLVDTIPASGNVLVTPHPLGDLTYNSSKGSIELALLSVAPSARVAQNPVQVQRAIHPQSLDFSSVSTEADGSGSGEHRVETSSRALVRRTPAPNNSETSQPSSNDSAIEVEAHEEERPSSRRQWEQQGELISPRQWGQHEGMYYFDKRNNRVIEVMGFNISQGRNQSHDTIHNQSINDSQTRLLVHSMSMSHLEAHDHFRSKRTTLGSRMLRFLGPCVRCRNGDPLNRSNVTYKDGLPAMPEEEFVDQRNQR
B2: ASCIZ: known LC8 binding partner, literature (protein, UniProt O43313 1-823, looked up)
ATM interactor: MAASEAAAAAGSAALAAGARAVPAATTGAAAAASGPWVPPGPRLRGSRPRPAGATQQPAVPAPPAGELIQPSVSELSRAVRTNILCTVRGCGKILPNSPALNMHLVKSHRLQDGIVNPTIRKDLKTGPKFYCCPIEGCPRGPERPFSQFSLVKQHFMKMHAEKKHKCSKCSNSYGTEWDLKRHAEDCGKTFRCTCGCPYASRTALQSHIYRTGHEIPAEHRDPPSKKRKMENCAQNQKLSNKTIESLNNQPIPRPDTQELEASEIKLEPSFEDSCGSNTDKQTLTTPPRYPQKLLLPKPKVALVKLPVMQFSVMPVFVPTADSSAQPVVLGVDQGSATGAVHLMPLSVGTLILGLDSEACSLKESLPLFKIANPIAGEPISTGVQVNFGKSPSNPLQELGNTCQKNSISSINVQTDLSYASQNFIPSAQWATADSSVSSCSQTDLSFDSQVSLPISVHTQTFLPSSKVTSSIAAQTDAFMDTCFQSGGVSRETQTSGIESPTDDHVQMDQAGMCGDIFESVHSSYNVATGNIISNSLVAETVTHSLLPQNEPKTLNQDIEKSAPIINFSAQNSMLPSQNMTDNQTQTIDLLSDLENILSSNLPAQTLDHRSLLSDTNPGPDTQLPSGPAQNPGIDFDIEEFFSASNIQTQTEESELSTMTTEPVLESLDIETQTDFLLADTSAQSYGCRGNSNFLGLEMFDTQTQTDLNFFLDSSPHLPLGSILKHSSFSVSTDSSDTETQTEGVSTAKNIPALESKVQLNSTETQTMSSGFETLGSLFFTSNETQTAMDDFLLADLAWNTMESQFSSVETQTSAEPHTVSNF
B3: DYNC1I1: known LC8 binding partner, literature (protein, UniProt O14576 2-645, looked up)
Cytoplasmic dynein 1 …: SDKSDLKAELERKKQRLAQIREEKKRKEEERKKKEADMQQKKEPVQDDSDLDRKRRETEALLQSIGISPEPPLVQPLHFLTWDTCYFHYLVPTPMSPSSKSVSTPSEAGSQDSGDLGPLTRTLQWDTDPSVLQLQSDSELGRRLHKLGVSKVTQVDFLPREVVSYSKETQTPLATHQSEEDEEDEEMVESKVGQDSELENQDKKQEVKEAPPRELTEEEKQQILHSEEFLIFFDRTIRVIERALAEDSDIFFDYSGRELEEKDGDVQAGANLSFNRQFYDEHWSKHRVVTCMDWSLQYPELMVASYNNNEDAPHEPDGVALVWNMKFKKTTPEYVFHCQSSVMSVCFARFHPNLVVGGTYSGQIVLWDNRSHRRTPVQRTPLSAAAHTHPVYCVNVVGTQNAHNLITVSTDGKMCSWSLDMLSTPQESMELVYNKSKPVAVTGMAFPTGDVNNFVVGSEEGTVYTACRHGSKAGIGEVFEGHQGPVTGINCHMAVGPIDFSHLFVTSSFDWTVKLWTTKHNKPLYSFEDNADYVYDVMWSPVHPALFACVDGMGRLDLWNLNNDTEVPTASVAIEGASALNRVRWAQAGKEVAVGDSEGRIWVYDVGELAVPHNDEWTRFARTLVEIRANRADSEEEGTVELSA
B4: LCA5: 697 amino acid long protein lebercilin, cellular (protein, UniProt Q86VQ0 1-697, looked up)
chain: MGERAGSPGTDQERKAGKHHYSYLSDFETPQSSGRSSLVSSSPASVRRKNPKRQTSDGQVHHQAPRKPSPKGLPNRKGVRVGFRSQSLNREPLRKDTDLVTKRILSARLLKINELQNEVSELQVKLAELLKENKSLKRLQYRQEKALNKFEDAENEISQLIFRHNNEITALKERLRKSQEKERATEKRVKDTESELFRTKFSLQKLKEISEARHLPERDDLAKKLVSAELKLDDTERRIKELSKNLELSTNSFQRQLLAERKRAYEAHDENKVLQKEVQRLYHKLKEKERELDIKNIYSNRLPKSSPNKEKELALRKNAACQSDFADLCTKGVQTMEDFKPEEYPLTPETIMCYENKWEEPGHLTLDLQSQKQDRHGEAGILNPIMEREEKFVTDEELHVVKQEVEKLEDEWEREELDKKQKEKASLLEREEKPEWETGRYQLGMYPIQNMDKLQGEEEERLKREMLLAKLNEIDRELQDSRNLKYPVLPLLPDFESKLHSPERSPKTYRFSESSERLFNGHHLQDISFSTPKGEGQNSGNVRSPASPNEFAFGSYVPSFAKTSERSNPFSQKSSFLDFQRNSMEKLSKDGVDLITRKEKKANLMEQLFGASGSSTISSKSSDPNSVASSKGDIDPLNFLPGNKGSRDQEHDEDEGFFLSEGRSFNPNRHRLKHADDKPAVKAADSVEDEIEEVALR
modifications: full-length
notes: 697 amino acid long protein lebercilin, cellular

Assays:
LC8 = target: T1, LC8 (Homo sapiens, UniProt Q96FJ2); conditions: literature, ref (6)-(10) of supplement, cited from earlier work; for Number of monomeric LC8 in complex / Number of monomeric binding partners in complex: composition of complexes
T1 construct: 6xHis (N); made in house; host or cells: E. coli BL21 (DE3) Rosetta
T1 sequence (Q96FJ2 whole entry): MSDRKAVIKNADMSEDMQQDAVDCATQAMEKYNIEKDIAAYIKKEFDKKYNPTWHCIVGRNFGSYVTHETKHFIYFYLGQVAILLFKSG
Excerpt: According to the standard model of LC8 interactions, the dimeric interface of LC8 presents two interaction sites for partners which also form dimers, implying a 1:1 stoichiometry. Partners with two adjacent binding motifs, like ANA2, follow a 1:2 stoichiometry by binding two LC8[18]. Intriguingly, we observed a 2:1 LCA5:LC8 stoichiometry for the ΔCQS and the ΔVQT mutants, which means that one LC8 dimer binds four LCA5 chains (Supplementary Table S1). A reasonable interpretation is that the native LCA5 is dimeric and thus a pair of LCA5 dimers bind to one dimeric LC8. In such a situation, one i ... || page 10: Composition of complexes Number of LC8 Number of Ratio of LCA5 LC8 binding monomeric binding monomeric LC8 in monomers to LC8 Gene name sites partners in complex complex monomers SWA (6) 1 2 2 1:1 DYNC1I1 (7) 1 2 2 1:1 WDR34-WDR60 3 1+1 6 1:3 (8) ANA2 (9) 2 2 4 1:2 ASCIZ (10) 11 2 22 1:11 sLCA5-WT 2 4 4 1:1 sLCA5-single 1 4 2 2:1 mutants Supplementary Table S1. Stoichiometries of various LC8 binding partners in complex with LC8. Known LC8 binding partners according to literature data always form dimers upon LC8 binding. The stoichiometry is basically 1:1 in case of one LC8 binding sit ...

LC8 in hTERT-RPE1 cells = assay: immunofluorescence colocalization of LCA5 and LC8; type: cell-based; conditions: for Pearson's correlation coefficient, LCA5 and LC8: Z-stack images, JACoP
Experimental: hTERT-RPE1 cells were seeded on poly-lysine-coated 21 mm coverslips. After 24 h, cells were serum-starved for an additional 72 h. Cells were washed with DPBS (Lonza) two times and once in cytoskeletal buffer (10 mM PIPES, 100 mM NaCl, 3 mM MgCl2, 300 mM Sucrose, 5 mM EGTA, 0.5% Triton-X 100, pH 6.9)[44]. Subsequently, cells were fixed in a cytoskeletal buffer containing 4% PFA for 10 min at 37 °C. Fixed cells were washed with DPBS and permeabilised for an additional 30 min in 0.5% Triton-X 100 in DPBS and incubated for 1 h in a blocking buffer (2% BSA, 0.1% Triton-X 100 in DPBS) at room temperature. Primary and secondary antibodies were diluted in a blocking buffer. The cells were incubated with rabbit anti-lebercilin 1:200 (Proteintech 19,333-1-AP), goat anti-LC8 1:100 (Invitrogen PA5-47,957), mouse anti-acetylated-α-tubulin 1:15,000 (Sigma Aldrich 5335S) overnight at 4 °C. Finally, cells were treated with secondary antibodies (anti-goat-Alexa Fluor 488 1:800, anti-mouse-CY3 1:800, anti-rabbit-Alexa Fluor 647 1:800 Jackson ImmunoResearch) for 1 h at room temperature. Coverslips were mounted using ProLong Diamond antifade mountant with DAPI (Invitrogen) and imaged with an inverted Zeiss LSM 800, the image processing was completed with Fiji ImageJ software. The calculations of the colocalization were performed using the JACoP plugin of ImageJ software. The Pearson’s coefficient and the Manders coefficients were calculated on Z-stack images of primary cilia and centrosomes of hTERT-RPE1 cells using manual thresholds. For the statistical analysis of the colocalization a randomization based Costes method was used.

[1] = centrosome, late interphase hTERT-RPE1 cells
[2] = ciliary basal body, ciliated hTERT-RPE1 cells

| Molecule | Number of monomeric LC8 in complex (LC8) | Number of monomeric binding partners in complex (LC8) | LC8 binding sites (LC8) | thresholded Manders LC8 to LCA5 tM2 (LC8 in hTERT-RPE1 cells; [1]) | thresholded Manders LCA5 to LC8 tM1 (LC8 in hTERT-RPE1 cells; [1]) | Pearson's correlation coefficient, LCA5 and LC8 (LC8 in hTERT-RPE1 cells; [1]) | thresholded Manders LC8 to LCA5 tM2 (LC8 in hTERT-RPE1 cells; [2]) | thresholded Manders LCA5 to LC8 tM1 (LC8 in hTERT-RPE1 cells; [2]) | Pearson's correlation coefficient, LCA5 and LC8 (LC8 in hTERT-RPE1 cells; [2]) |
| --- | --- | --- | --- | --- | --- | --- | --- | --- | --- |
| B1 | 2 | 2 | 1 |  |  |  |  |  |  |
| B2 | 22 | 2 | 11 |  |  |  |  |  |  |
| B3 | 2 | 2 | 1 |  |  |  |  |  |  |
| B4 |  |  |  | 0.574 | 0.929 | 0.802 | 0.718 | 0.671 | 0.715 |

Reference: PMC9481538, “The interaction between LC8 and LCA5 reveals a novel oligomerization function of LC8 in the ciliary-centrosome system” (Scientific Reports, 2022)
